Experimental data: patent US9683217B2, “In vitro culture conditions for T-cell acute lymphoblastic leukemia/lymphoma” (THE UNIVERSITY OF MIAMI, priority 2013, dated 2017)

Key:
IGF1R = IGF1R (Homo sapiens, UniProt P08069); conditions: read-out: Kd of insulin for IGF1R; cited from earlier work
human T-ALL lymphoblasts = test: Cytokine/growth factor subtraction and IGF1R blockade, resazurin-reduction cell growth assay; type: cell-based; conditions: for importance of the supplemental cytokine for T-ALL growth: SCF, IGF-1, IL-2, IL-7 added alone or in combination, FIG. 3
Method: A resazurin-reduction cell growth assay was performed on (A-B) primary and (C) xenograft-expanded T-ALL. Cells were cultured and passaged as described in FIG. 1. Cytokines and growth factors were subtracted out of the complete media and cells were assayed for growth using a resazurin reduction assay. […] Significance: * p<0.05, ** p<0.01, and *** p<0.001.
Cell Titer Blue (Promega) was added to a co-culture, 5 μl/well for a 12-well plate and 1 μl/well for a 96-well plate, and allowed to incubate for 2-6 hours depending on the number and type of cells present in the well. Cultures were then analyzed using a Tecan GENios Flourometric plate reader. The plate reader was set to read from the bottom at 535 nm excitation and 590 nm emission wavelengths, at optimal gain with an integration time of 80 μs and a lag time of 0 μs. The plate was orbitally shaken in the machine for 5 sec prior to reading.
Studies were also conducted with human T-ALL primary cells (FIGS. 3A-3B) and human T-ALL cells that were previously expanded in immunodeficient NSG mice (FIG. 3C).

insulin: ligand for a tyrosine kinase transmembrane receptor (CD220); component of the basal medium
Kd (IGF1R): 200 to 400 nM

IGF-1: ligand for a tyrosine kinase transmembrane receptor (CD221); recombinant supplement
importance of the supplemental cytokine for T-ALL growth (human T-ALL lymphoblasts): may be dispensable

B1: CP-751,871: an IGF-1 receptor (IGF1R) blocking antibody, specific for human IGF1R (antibody, chains of the INN, looked up)
heavy: EVQLLESGGGLVQPGGSLRLSCTASGFTFSSYAMNWVRQAPGKGLEWVSAISGSGGTTFYADSVKGRFTISRDNSRTTLYLQMNSLRAEDTAVYYCAKDLGWSDSYYYYYGMDVWGQGTTVTVSSASTKGPSVFPLAPCSRSTSESTAALGCLVKDYFPEPVTVSWNSGALTSGVHTFPAVLQSSGLYSLSSVVTVPSSNFGTQTYTCNVDHKPSNTKVDKTVERKCCVECPPCPAPPVAGPSVFLFPPKPKDTLMISRTPEVTCVVVDVSHEDPEVQFNWYVDGVEVHNAKTKPREEQFNSTFRVVSVLTVVHQDWLNGKEYKCKVSNKGLPAPIEKTISKTKGQPREPQVYTLPPSREEMTKNQVSLTCLVKGFYPSDIAVEWESNGQPENNYKTTPPMLDSDGSFFLYSKLTVDKSRWQQGNVFSCSVMHEALHNHYTQKSLSLSPG
light: DIQMTQFPSSLSASVGDRVTITCRASQGIRNDLGWYQQKPGKAPKRLIYAASRLHRGVPSRFSGSGSGTEFTLTISSLQPEDFATYYCLQHNSYPCSFGQGTKLEIKRTVAAPSVFIFPPSDEQLKSGTASVVCLLNNFYPREAKVQWKVDNALQSGNSQESVTEQDSKDSTYSLSSTLTLSKADYEKHKVYACEVTHQGLSSPVTKSFNRGEC
effect of IGF1R blocking antibody on cell growth (human T-ALL lymphoblasts; T-ALL on mouse MS5-DL1 feeders): significantly impaired cell growth

B2: IL-7: ligand for the IL-7 receptor; recombinant cytokine supplement (protein, UniProt P13232 26-177, looked up)
Interleukin-7: DCDIEGKDGKQYESVLMVSIDQLLDSMKEIGSNCLNNEFNFFKRHICDANKEGMFLFRAARKLRQFLKMNSTGDFDLHLLKVSEGTTILLNCTGQVKGRKPAALGEAQPTKSLEENKSLKEQKKLNDLCFLKRLLQEIKTCWNKILMGTKEH
importance of the supplemental cytokine for T-ALL growth (human T-ALL lymphoblasts): the most important factor
